In paper PMC12277127 (Nucleic Acids Research, 2024) one finds Kd data, which are given here for three molecules.

Conditions in all cases: both partners purified
For one test, the target named is T1, M1-linked hexaUb (UniProt P0CG48 1-456).
T1 construct: six ubiquitin units head to tail on one chain (M1-linked, linear); plasmid pET-24-hexaUb; also called M1-Ub6; source: E. coli BL21(DE3), purified (HisTrap, SEC)
In words: ITC; ubiquitin species titrated into the SPRTN fragment (arrows in Supplementary Figures 4A, 4D, 6A); 25°C; 50 mM HEPES pH 7.4, 50 mM NaCl, 0.5 mM TCEP-HCl; one-site binding model; at least 3 repeats, undetectable pairs 1 repeat.

Another test addresses T2, M1-linked tetraUb (UniProt P0CG48 1-304).
T2 construct: four ubiquitin units head to tail on one chain (M1-linked, linear); plasmid pET-24-tetraUb; also called M1-Ub4; source: E. coli BL21(DE3), purified (HisTrap, SEC)
Described as above.

Another test has as its target T3, M1-linked diUb (UniProt P0CG48 1-152).
T3 construct: two ubiquitin units head to tail on one chain (M1-linked, linear); plasmid pET-47b-N-His-Ub2; The His tag was removed by HRV 3C only for the 15N-labelled M1-Ub2 of the NMR work, as far as the methods tell; also called M1-Ub2; M1-Ub2 WT; source: E. coli BL21(DE3), purified (HisTrap, SEC)
Described as above.

The target in test [1] is T4, M1-linked diUb (His-tagged M1-Ub2) (UniProt P0CG48 1-76; P0CG48 1-76).
T4 construct: ubiquitin unit 1 of 2 (distal), joined head to tail (M1-linked); ubiquitin unit 2 of 2 (proximal); its I44 is printed as position 120 of the chain; also called linear diUb; source: E. coli BL21(DE3), purified (HisTrap, SEC)
The experiment in a line: ITC; MicroCal PEAQ-ITC, 25°C, 50 mM HEPES pH 7.4, 50 mM NaCl, 0.5 mM TCEP–HCl; one-site binding model; who was in the syringe is not told.

Test [2] addresses T5, M1-linked hexaUb (His-tagged M1-Ub6) (UniProt P0CG48 1-76; P0CG48 1-76; P0CG48 1-76; P0CG48 1-76; P0CG48 1-76; P0CG48 1-76).
T5 construct: ubiquitin unit 1 of 6, joined head to tail (M1-linked); ubiquitin unit 2 of 6; ubiquitin unit 3 of 6; ubiquitin unit 4 of 6; ubiquitin unit 5 of 6; ubiquitin unit 6 of 6; source: E. coli BL21(DE3), purified (HisTrap, SEC)
Described as above.

For test [3], the target named is T6, M1-linked tetraUb (His-tagged M1-Ub4) (UniProt P0CG48 1-76; P0CG48 1-76; P0CG48 1-76; P0CG48 1-76).
T6 construct: ubiquitin unit 1 of 4, joined head to tail (M1-linked); ubiquitin unit 2 of 4; ubiquitin unit 3 of 4; ubiquitin unit 4 of 4; source: E. coli BL21(DE3), purified (HisTrap, SEC)
The test is described as above.

The target of test [4] is T7, Proliferating Cell Nuclear Antigen (UniProt P12004 1-261).
T7 construct: PCNA; plasmid pET16b-PCNA (Addgene #134898); also called PCNA; source: E. coli BL21(DE3), purified (Q Sepharose, heparin, SEC)
The experiment in a line: SPR; SPRTN PIP-UBZ amine-coupled to a CM5 chip (~1000 RU); analytes monoUb, PCNA, monoUb-PCNA; 50 mM HEPES pH 7.4, 50 mM NaCl, 0.5 mM TCEP-HCl; steady-state affinity model. On the technique in general: SPR reads the build-up and loss of mass on a sensor chip optically.

The Kd is a measure of binding affinity in units of concentration. High values mean weaker binding, low ones tighter binding.

T7 sequence (P12004 whole entry): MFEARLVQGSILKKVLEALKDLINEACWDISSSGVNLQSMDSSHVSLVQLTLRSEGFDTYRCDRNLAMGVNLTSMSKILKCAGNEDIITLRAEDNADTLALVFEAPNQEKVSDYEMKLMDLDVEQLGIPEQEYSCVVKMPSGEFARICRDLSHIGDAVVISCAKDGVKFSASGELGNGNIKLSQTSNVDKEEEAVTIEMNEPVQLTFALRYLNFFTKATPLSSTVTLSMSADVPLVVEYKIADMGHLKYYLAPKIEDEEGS

B1: SPRTN core region (26-240 aa), E112Q (domain or fragment, human, UniProt Q9H040 26-240, looked up)
chain: QESLSLVDASWELVDPTPDLQALFVQFNDQFFWGQLEAVEVKWSVRMTLCAGICSYEGKGGMCSIRLSEPLLKLRPRKDLVETLLHQMIHAYLFVTNNDKDREGHGPEFCKHMHRINSLTGANITVYHTFHDEVDEYRRHWWRCNGPCQHRPPYYGYVKRATNREPSAHDYWWAEHQKTCGGTYIKIKEPENYSKKGKGKAKLGKEPVLAAENKD
notes: SPRTN, human, residues 26-240 (MPD, ZBD and BR); plasmid pNIC28-SPRTN core (26-240), E112Q; also called SPRTN core (E112Q); SPRTN core E112Q; source: E. coli BL21(DE3), purified (Ni-NTA, TEV cleavage, SEC)
In the case of B1, the Kd amounted to 34.8 ± 3.8 µM in the test with M1-linked hexaUb, 69.7 ± 6.9 µM with M1-linked tetraUb and 132 ± 3.9 µM with M1-linked diUb.

B2: SPRTN core region (E112Q), enzymatically inactive (domain or fragment, human, UniProt Q9H040 26-240, looked up)
chain: QESLSLVDASWELVDPTPDLQALFVQFNDQFFWGQLEAVEVKWSVRMTLCAGICSYEGKGGMCSIRLSEPLLKLRPRKDLVETLLHQMIHAYLFVTNNDKDREGHGPEFCKHMHRINSLTGANITVYHTFHDEVDEYRRHWWRCNGPCQHRPPYYGYVKRATNREPSAHDYWWAEHQKTCGGTYIKIKEPENYSKKGKGKAKLGKEPVLAAENKD
notes: SPRTN, human, residues 26-240 (plasmid pNIC28-SPRTN (26-240)), variant E112Q; also called SPRTN core (E112Q); ΔMIU, ΔC: 26–240 aa; source: E. coli BL21(DE3), purified (Ni-NTA, TEV cleavage, HisTrap flow-through, SEC)
On to B2, for which the Kd in test [1] was approximately 132 µM; in test [2], approximately 35 µM; in test [3], approximately 70 µM.

B3: SPRTN PIP-UBZ (320-489) (domain or fragment, human, UniProt Q9H040 320-489, looked up)
chain: VSNSHQNVLSNYFPRVSFANQKAFRGVNGSPRISVTVGNIPKNSVSSSSQRRVSSSKISLRNSSKVTESASVMPSQDVSGSEDTFPNKRPRLEDKTVFDNFFIKKEQIKSSGNDPKYSTTTAQNSSSSSSQSKMVNCPVCQNEVLESQINEHLDWCLEGDSIKVKSEESL
notes: SPRTN, human, PIP box to UBZ, residues 320-489; plasmid pCold I-SPRTN-PIP-UBZ (320-489); Its purification is not described; amine-coupled to a CM5 chip for SPR
Molecule B3 returned a Kd in test [4] of 12.8 ± 2 µM.
